Data: patent US20140294898A1 (published 2014)
Positions of bridges follow the written chain, without caps; N, C: chain ends. Non-standard residues stand in square brackets, D forms with d. Phe(4-CF3) = N[C@@H](Cc1ccc(C(F)(F)F)cc1)C(=O)O; Phe(4-tBu) = CC(C)(C)c1ccc(C[C@H](N)C(=O)O)cc1; Bip = N[C@@H](Cc1ccc(-c2ccccc2)cc1)C(=O)O; Phe(4-Br) = N[C@@H](Cc1ccc(Br)cc1)C(=O)O; 1Nal = N[C@@H](Cc1cccc2ccccc12)C(=O)O; 2Nal = N[C@@H](Cc1ccc2ccccc2c1)C(=O)O; 3Pal = N[C@@H](Cc1cccnc1)C(=O)O; NMeNle = CCCC[C@H](NC)C(=O)O; NMeV = CN[C@H](C(=O)O)C(C)C; NMeA = CN[C@@H](C)C(=O)O; Sar = CNCC(=O)O

Target: T1, hPDL1(19-239)-TVMV-His (human, UniProt Q9NZQ7 19-239)
T1 construct: The text says amino acids 18-239, the construct name says 19-239; Expressed in HEK293T cells; Used at 10 nM final in the HTRF assay; also called PD-L1-His; PD-L1-TVMV-His
T1 sequence (Q9NZQ7 other isoform, or with tags, fused parts or gaps limits assumed): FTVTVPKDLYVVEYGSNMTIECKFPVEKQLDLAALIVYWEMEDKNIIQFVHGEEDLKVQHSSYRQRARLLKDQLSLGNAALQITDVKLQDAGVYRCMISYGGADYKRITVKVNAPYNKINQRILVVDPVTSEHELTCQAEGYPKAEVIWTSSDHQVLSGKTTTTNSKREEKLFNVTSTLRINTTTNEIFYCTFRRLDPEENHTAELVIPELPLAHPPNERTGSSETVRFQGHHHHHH
Test: HTRF competition, PD-1-Ig binding to PD-L1-His
Procedure: All binding studies were performed in an HTRF assay buffer consisting of dPBS supplemented with 0.1% (w/v) bovine serum albumin and 0.05% (v/v) Tween-20. […] PD-L1 fusion proteins from either human, cynomologous macaques, or mouse were used. HTRF detection was achieved using europium crypate-labeled anti-Ig monoclonal antibody (1 nM final) and allophycocyanin (APC) labeled anti-His monoclonal antibody (20 nM final). Antibodies were diluted in HTRF detection buffer and 5 μl was dispensed on top of binding reaction. The reaction was allowed to equilibrate for 30 minutes and signal (665 nm/620 nm ratio) was obtained using an EnVision fluorometer. […]
HTRF Experiments were performed essentially as outlined supra. Variant macrocyclic peptides were created as outlined herein.

B1: Compound No. 41 (peptide)
peptide: {CH2CO}-F[NMeV]NPHL[Sar]WSW[NMeNle][NMeNle]RCG-NH2
modifications: thioether N-14
SMILES: CCCC[C@H]1C(=O)N(C)[C@@H](CCCC)C(=O)N[C@@H](CCCNC(=N)N)C(=O)N[C@H](C(=O)NCC(N)=O)CSCC(=O)N[C@@H](Cc2ccccc2)C(=O)N(C)[C@@H](C(C)C)C(=O)N[C@@H](CC(N)=O)C(=O)N2CCC[C@H]2C(=O)N[C@@H](Cc2c[nH]cn2)C(=O)N[C@@H](CC(C)C)C(=O)N(C)CC(=O)N[C@@H](Cc2c[nH]c3ccccc23)C(=O)N[C@@H](CO)C(=O)N[C@@H](Cc2c[nH]c3ccccc23)C(=O)N1C
  IC50: 921 nM

B2: Compound No. 43 (peptide)
peptide: {CH2CO}-F[NMeA]GPHL[Sar]WSW[NMeNle][NMeNle]RCG-NH2
modifications: thioether N-14
SMILES: CCCC[C@H]1C(=O)N(C)[C@@H](CCCC)C(=O)N[C@@H](CCCNC(=N)N)C(=O)N[C@H](C(=O)NCC(N)=O)CSCC(=O)N[C@@H](Cc2ccccc2)C(=O)N(C)[C@@H](C)C(=O)NCC(=O)N2CCC[C@H]2C(=O)N[C@@H](Cc2c[nH]cn2)C(=O)N[C@@H](CC(C)C)C(=O)N(C)CC(=O)N[C@@H](Cc2c[nH]c3ccccc23)C(=O)N[C@@H](CO)C(=O)N[C@@H](Cc2c[nH]c3ccccc23)C(=O)N1C
  IC50: 554 nM

B3: Compound No. 12 (peptide)
peptide: {CH2CO}-F[NMeA]NPHLGWSW[NMeNle][NMeNle]RCG-NH2
modifications: thioether N-14
SMILES: CCCC[C@H]1C(=O)N(C)[C@@H](CCCC)C(=O)N[C@@H](CCCNC(=N)N)C(=O)N[C@H](C(=O)NCC(N)=O)CSCC(=O)N[C@@H](Cc2ccccc2)C(=O)N(C)[C@@H](C)C(=O)N[C@@H](CC(N)=O)C(=O)N2CCC[C@H]2C(=O)N[C@@H](Cc2c[nH]cn2)C(=O)N[C@@H](CC(C)C)C(=O)NCC(=O)N[C@@H](Cc2c[nH]c3ccccc23)C(=O)N[C@@H](CO)C(=O)N[C@@H](Cc2c[nH]c3ccccc23)C(=O)N1C
  IC50: 22 nM

B4: Compound No. 19 (peptide)
peptide: FANPHLGWSWAXRCG
HELM: PEPTIDE1{[O=C(C[*:3])[*:2]].F.[meA].N.P.H.L.[Sar].W.S.W.[meA].[CCCC[C@@H](C(=O)[*:2])N(C)[*:1]].R.C.G.[am]}$PEPTIDE1,PEPTIDE1,1:R3-15:R3$$$V2.0
SMILES: CCCC[C@H]1C(=O)N[C@@H](CCCNC(=N)N)C(=O)N[C@H](C(=O)NCC(N)=O)CSCC(=O)N[C@@H](Cc2ccccc2)C(=O)N(C)[C@@H](C)C(=O)N[C@@H](CC(N)=O)C(=O)N2CCC[C@H]2C(=O)N[C@@H](Cc2c[nH]cn2)C(=O)N[C@@H](CC(C)C)C(=O)N(C)CC(=O)N[C@@H](Cc2c[nH]c3ccccc23)C(=O)N[C@@H](CO)C(=O)N[C@@H](Cc2c[nH]c3ccccc23)C(=O)N(C)[C@@H](C)C(=O)N1C
  IC50: 33 nM

B5: Compound No. 21 (peptide)
peptide: FANPHLGWSWXARCG
HELM: PEPTIDE1{[O=C(C[*:3])[*:2]].F.[meA].N.P.H.L.[Sar].W.S.W.[CCCC[C@@H](C(=O)[*:2])N(C)[*:1]].[meA].R.C.G.[am]}$PEPTIDE1,PEPTIDE1,1:R3-15:R3$$$V2.0
SMILES: CCCC[C@H]1C(=O)N(C)[C@@H](C)C(=O)N[C@@H](CCCNC(=N)N)C(=O)N[C@H](C(=O)NCC(N)=O)CSCC(=O)N[C@@H](Cc2ccccc2)C(=O)N(C)[C@@H](C)C(=O)N[C@@H](CC(N)=O)C(=O)N2CCC[C@H]2C(=O)N[C@@H](Cc2c[nH]cn2)C(=O)N[C@@H](CC(C)C)C(=O)N(C)CC(=O)N[C@@H](Cc2c[nH]c3ccccc23)C(=O)N[C@@H](CO)C(=O)N[C@@H](Cc2c[nH]c3ccccc23)C(=O)N1C
  IC50: 21 nM

B6: Compound No. 24 (peptide)
peptide: {CH2CO}-F[NMeA]NPHL[Sar]WSW[NMeNle][NMeNle]RC-NH2
modifications: thioether N-14
SMILES: CCCC[C@H]1C(=O)N(C)[C@@H](CCCC)C(=O)N[C@@H](CCCNC(=N)N)C(=O)N[C@H](C(N)=O)CSCC(=O)N[C@@H](Cc2ccccc2)C(=O)N(C)[C@@H](C)C(=O)N[C@@H](CC(N)=O)C(=O)N2CCC[C@H]2C(=O)N[C@@H](Cc2c[nH]cn2)C(=O)N[C@@H](CC(C)C)C(=O)N(C)CC(=O)N[C@@H](Cc2c[nH]c3ccccc23)C(=O)N[C@@H](CO)C(=O)N[C@@H](Cc2c[nH]c3ccccc23)C(=O)N1C
  IC50: 9 nM

B7: Compound No. 26 (peptide)
peptide: {CH2CO}-[2Nal][NMeA]NPHL[Sar]WSW[NMeNle][NMeNle]RCG-NH2
modifications: thioether N-14
SMILES: CCCC[C@H]1C(=O)N(C)[C@@H](CCCC)C(=O)N[C@@H](CCCNC(=N)N)C(=O)N[C@H](C(=O)NCC(N)=O)CSCC(=O)N[C@@H](Cc2ccc3ccccc3c2)C(=O)N(C)[C@@H](C)C(=O)N[C@@H](CC(N)=O)C(=O)N2CCC[C@H]2C(=O)N[C@@H](Cc2c[nH]cn2)C(=O)N[C@@H](CC(C)C)C(=O)N(C)CC(=O)N[C@@H](Cc2c[nH]c3ccccc23)C(=O)N[C@@H](CO)C(=O)N[C@@H](Cc2c[nH]c3ccccc23)C(=O)N1C
  IC50: 15 nM

B8: Compound No. 27 (peptide)
peptide: {CH2CO}-[1Nal][NMeA]NPHL[Sar]WSW[NMeNle][NMeNle]RCG-NH2
modifications: thioether N-14
SMILES: CCCC[C@H]1C(=O)N(C)[C@@H](CCCC)C(=O)N[C@@H](CCCNC(=N)N)C(=O)N[C@H](C(=O)NCC(N)=O)CSCC(=O)N[C@@H](Cc2cccc3ccccc23)C(=O)N(C)[C@@H](C)C(=O)N[C@@H](CC(N)=O)C(=O)N2CCC[C@H]2C(=O)N[C@@H](Cc2c[nH]cn2)C(=O)N[C@@H](CC(C)C)C(=O)N(C)CC(=O)N[C@@H](Cc2c[nH]c3ccccc23)C(=O)N[C@@H](CO)C(=O)N[C@@H](Cc2c[nH]c3ccccc23)C(=O)N1C
  IC50: 20 nM

B9: Compound No. 28 (peptide)
peptide: {CH2CO}-[Bip][NMeA]NPHL[Sar]WSW[NMeNle][NMeNle]RCG-NH2
modifications: thioether N-14
SMILES: CCCC[C@H]1C(=O)N(C)[C@@H](CCCC)C(=O)N[C@@H](CCCNC(=N)N)C(=O)N[C@H](C(=O)NCC(N)=O)CSCC(=O)N[C@@H](Cc2ccc(-c3ccccc3)cc2)C(=O)N(C)[C@@H](C)C(=O)N[C@@H](CC(N)=O)C(=O)N2CCC[C@H]2C(=O)N[C@@H](Cc2c[nH]cn2)C(=O)N[C@@H](CC(C)C)C(=O)N(C)CC(=O)N[C@@H](Cc2c[nH]c3ccccc23)C(=O)N[C@@H](CO)C(=O)N[C@@H](Cc2c[nH]c3ccccc23)C(=O)N1C
  IC50: 117 nM

B10: Compound No. 34 (peptide)
peptide: {CH2CO}-[Phe(4-Br)][NMeA]NPHL[Sar]WSW[NMeNle][NMeNle]RCG-NH2
modifications: thioether N-14
SMILES: CCCC[C@H]1C(=O)N(C)[C@@H](CCCC)C(=O)N[C@@H](CCCNC(=N)N)C(=O)N[C@H](C(=O)NCC(N)=O)CSCC(=O)N[C@@H](Cc2ccc(Br)cc2)C(=O)N(C)[C@@H](C)C(=O)N[C@@H](CC(N)=O)C(=O)N2CCC[C@H]2C(=O)N[C@@H](Cc2c[nH]cn2)C(=O)N[C@@H](CC(C)C)C(=O)N(C)CC(=O)N[C@@H](Cc2c[nH]c3ccccc23)C(=O)N[C@@H](CO)C(=O)N[C@@H](Cc2c[nH]c3ccccc23)C(=O)N1C
  IC50: 4 nM

B11: Compound No. 35 (peptide)
peptide: {CH2CO}-[Phe(4-CF3)][NMeA]NPHL[Sar]WSW[NMeNle][NMeNle]RCG-NH2
modifications: thioether N-14
SMILES: CCCC[C@H]1C(=O)N(C)[C@@H](CCCC)C(=O)N[C@@H](CCCNC(=N)N)C(=O)N[C@H](C(=O)NCC(N)=O)CSCC(=O)N[C@@H](Cc2ccc(C(F)(F)F)cc2)C(=O)N(C)[C@@H](C)C(=O)N[C@@H](CC(N)=O)C(=O)N2CCC[C@H]2C(=O)N[C@@H](Cc2c[nH]cn2)C(=O)N[C@@H](CC(C)C)C(=O)N(C)CC(=O)N[C@@H](Cc2c[nH]c3ccccc23)C(=O)N[C@@H](CO)C(=O)N[C@@H](Cc2c[nH]c3ccccc23)C(=O)N1C
  IC50: 56 nM

B12: Compound No. 37 (peptide)
peptide: {CH2CO}-[Phe(4-tBu)][NMeA]NPHL[Sar]WSW[NMeNle][NMeNle]RCG-NH2
modifications: thioether N-14
SMILES: CCCC[C@H]1C(=O)N(C)[C@@H](CCCC)C(=O)N[C@@H](CCCNC(=N)N)C(=O)N[C@H](C(=O)NCC(N)=O)CSCC(=O)N[C@@H](Cc2ccc(C(C)(C)C)cc2)C(=O)N(C)[C@@H](C)C(=O)N[C@@H](CC(N)=O)C(=O)N2CCC[C@H]2C(=O)N[C@@H](Cc2c[nH]cn2)C(=O)N[C@@H](CC(C)C)C(=O)N(C)CC(=O)N[C@@H](Cc2c[nH]c3ccccc23)C(=O)N[C@@H](CO)C(=O)N[C@@H](Cc2c[nH]c3ccccc23)C(=O)N1C
  IC50: 1270 nM

B13: Compound No. 38 (peptide)
peptide: {CH2CO}-[3Pal][NMeA]NPHL[Sar]WSW[NMeNle][NMeNle]RCG-NH2
modifications: thioether N-14
SMILES: CCCC[C@H]1C(=O)N(C)[C@@H](CCCC)C(=O)N[C@@H](CCCNC(=N)N)C(=O)N[C@H](C(=O)NCC(N)=O)CSCC(=O)N[C@@H](Cc2cccnc2)C(=O)N(C)[C@@H](C)C(=O)N[C@@H](CC(N)=O)C(=O)N2CCC[C@H]2C(=O)N[C@@H](Cc2c[nH]cn2)C(=O)N[C@@H](CC(C)C)C(=O)N(C)CC(=O)N[C@@H](Cc2c[nH]c3ccccc23)C(=O)N[C@@H](CO)C(=O)N[C@@H](Cc2c[nH]c3ccccc23)C(=O)N1C
  IC50: 46 nM
